Experimental data taken from the supplement of paper PMC12636428.

tested on: Saccharomyces cerevisiae; test: transcriptional activation domain activity (GFP:mCherry ratio, weighted mean of sorted bins, harmonized to initial dataset scale) (arbitrary fluorescence ratio units); higher = stronger transcriptional activation; conditions: beta-estradiol 1 µM; induction time 4 h
Procedure: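 53-aa protein tiles (fungal proteins plus yeast TF control tiles) fused C-terminally to a DBD-estrogen-binding domain-mCherry synthetic TF, integrated in S. cerevisiae (URA3 locus) with a GFP reporter. Cells were induced with 1 uM beta-estradiol for 4 h at 30 C, FACS-sorted into 8 bins by GFP:mCherry ratio and barcodes sequenced. Activity is the read-weighted mean bin fluorescence (GFP:mCherry), averaged over barcodes (median 12); tiles under 50 reads were discarded. New active-learning values were harmonized by linear fit onto the scale of the initial (Hummel et al.) dataset. The assay saturates at low and high signal.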

Compared with “MPTVRCLLPFVLFTGLLYRILLSLSFLLVLPFLILLFSSPSLLSCFLLLAYIL”, “SKVYLLKHFEGYIMGKLYGDYEYTFLDLQRTKGMHFVQKYLRMKHVIVFKLSH” is higher in “transcriptional activation domain activity” value: 57000 for the first, 58700 for the second.

Going from “HALRTFVYKAAIIPISLFLVHFRRAFSCLCFCALSGFPRCHLTLLSIMFIFSL” to “SLHLAGCMLITCIGFIVLACLDVSQHIGAGYFCCFLLCCGGYISSPLLSTWYN”, the “transcriptional activation domain activity” value rises from 53700 to 94700.

Compared with “GKRRFLNGFLSCLLPTCGISDPLLRYAACFTVIRCCFRSNVLVPAMMRALLET”, “MIKKISFFLYIFALRSSFFLFLFVLYFFFPLFFFFFFSFSFFFLLLVSVATLE” is lower in “transcriptional activation domain activity” value: 45100 for the first, 12200 for the second.

First: RFLFQWDLELALSLCLSHTLGIISLPYKSIFISILWLIQSSWQLLFFLFWQPL
Second: ALHHVAWWIIIFELFFTVGIIVALGLGGFGPHRGTVCRYLLYTTCSQACNSLY
The “transcriptional activation domain activity” value of the first is higher: 70400 for the first, 35200 for the second.

Compared with “PNWESLFGLMDFVRIRAEKLQWHLFLSLIRFMEAMIVRYMANYDRRTLHNSTE”, “EAAARRERKQAAEKGENRERKRRTQGLQNNTARSQKDGDGKGEGGKDNKKDGK” is lower in “transcriptional activation domain activity” value: 44300 for the first, 29200 for the second.

Compared with “LCAEEYRWHWRAFLTGGGSAFWLLAYGLFFWASRLSLHSMSSAILYLGYLFLL”, “MRRFSLFFSLSSLCLWLYVCWIGWIDGFLLVDVMVHLQHVYCVLTILIFLFSL” is lower in “transcriptional activation domain activity” value: 77800 for the first, 22300 for the second.

Going from “MEDAGDDATPATKKGKGMKKRKKGEESDGENEKPAKTPKTKLKLTNKTPKEAS” to “DDADGKARSRRKDYSDDERGDTRRSRRDEHRSSKEHRSRTVKEGENDRRKAHR”, the “transcriptional activation domain activity” value falls from 36600 to under 6570.

First: LRNGYVDLGTHCITLFAQLMYVDCRTVFAEQIFTLAWYTTKGMGTIIATIGDY
Second: SDSGSEGDSDSDRGRSRKRKKGKSTGKSKSKSKSKSRRNASGSDDESESGSGS
The “transcriptional activation domain activity” value of the first is higher: 43400 for the first, 35300 for the second.

Going from “LTDWNVVSNKPITGPADPNEDVYIGRSETAMWMRVVSSWVCMLLYSWSLLAPV” to “VSLRSLPYEVGFKQNFNLILNHDASLIKTTVRHLLVYCSLIKAIKLCLIFINK”, the “transcriptional activation domain activity” value falls from 68000 to 52500.

First: TSLVYPIHSSDTGDTLSSGLETPENSNFNSDSGIKEDFEAFRALLPLGKLIYD
Second: PPWVDDCNPFLTDVYYLGSLLKRTFFVVYELTYKDFLFLLTLPVHRTPFLLCN
The “transcriptional activation domain activity” value of the first is higher: 69500 for the first, 50900 for the second.

First: MIFSNLLVLSLLCSLFLFFYFFFYVLCFFLFAYTLSRSLYITILGFFDLVIVF
Second: TVMVFGSDEKRVKAVGDMLKANLNVKGGGKGTRWSGKRTGVWSDSREGAAVTG
The “transcriptional activation domain activity” value of the first is higher: 66200 for the first, 47800 for the second.

Going from “DPYDWSTYSNLIDEERIFVPEVQSSDHINDKFLTVANVTGEGSEGLIMQWLSC” to “SVCHRAGEGDEEVEDEEEGEESDEEEEDGDDEKTADGGRAASARKGRDAGAGA”, the “transcriptional activation domain activity” value falls from 133000 to 13000.

Going from “LNTFLDSFIFQLFPMVADLWIAAAYFFLYFDAFYSLIIIATTWLYIYITIYMA” to “AKPDVKKAKAAPVASPKPKAKAAKKVAEPAVEEKKVEEKAEKLAKKAKATKAE”, the “transcriptional activation domain activity” value falls from 58800 to 32700.

First: DPPPHPSCPPGSLIIKMVVYLRRRRLLVTWCEDPSVPEVRCLVVATQSQWVPM
Second: MRAKNLTWTTLIYFSTVLWFVGDLVTNNHVRLVGVWSECKLWILWFRVFFVYV
The “transcriptional activation domain activity” value of the first is lower: 55300 for the first, 84300 for the second.

“YSILLSVILIFWWSVFTYYPSHLSYLSQRFSYYVWGDDSIDAVTVFKAWVYAH” and “STACILLILVRYLGLIALVLNIIGFFSHEFTMESCQYYWRFMPIMQCFASWAS” are the same in “transcriptional activation domain activity” value: 61800 for the first, 61800 for the second.

First: MCFFSFFLFLLRIWLLFCLLLSIPLGFRMRSWGVPTAFVTILHFSLVMHLITV
Second: SQKKHCELCKTAFRFTKLYSPDMPKHLPFHIFVHHMTRYLIRNFLVWLRAALV
The “transcriptional activation domain activity” value of the first is lower: 59900 for the first, 61500 for the second.

Compared with “MVLRYRLSRSFPTLFIHVQLVLQSLRMGQVSLCMVVQIVWEYIYFWLLGNIAW”, “EAAVTSDDEAGPAKKAKRGSVFEKFGGKFKSHKAAEKEPEAKEEAKEEEAKPA” is lower in “transcriptional activation domain activity” value: 65600 for the first, 14000 for the second.

Compared with “DEDPAKKGKKKASEPAATKVKAARGRKSKAAATEGSEAGPSKPPAKGRGKKAA”, “GQSGLGLEFNLPDFPLISIIFLIFFITLGLLWLVIVYLANFPDAFTLPVWLWH” is higher in “transcriptional activation domain activity” value: 15800 for the first, 29500 for the second.

Going from “AMRSWSGLMVLSMYDFRPIRSLIASILFPNAAIRETVLDLLFSLLRIKPPAWA” to “ADALSARSPKKGKKGKKGKKGKKGKKGKKAGAAAAAAGGAAGANGAKAAGAKA”, the “transcriptional activation domain activity” value falls from 38100 to 33300.

First: MSMFAMDFIIGHMVLFVLSPFTLVPYIDQLHSTMLFWLRPLLRLLRFYVHLYS
Second: MSVVKEENPDTPGGTTVQDVDNRLRQLIQACSPFHMLKNHNLLVLYLLIVPSA
The “transcriptional activation domain activity” value of the first is higher: 68200 for the first, 53700 for the second.

Compared with “MKRVLHVRNVARVNSGGKVRSVSALVVVGNGQGAAGYGEGRAVDAAAAVQKAT”, “MSGVGKLYRMGCWHGSHLPFIYFGHFILPFLLCLRPILSSVFFIYFFHLLCFF” is lower in “transcriptional activation domain activity” value: 54500 for the first, 47000 for the second.

Going from “RKARQAQGAQGGGGGGAGGPGARGGARGGRVGGERGGRGGGRGGERGRGRGRG” to “ESCDGSLWLCPFSQPVRPSLIKLVSRGIDRRRITSLLFMLWLVCWAVSLLFSK”, the “transcriptional activation domain activity” value rises from 51400 to 59900.

First: LELQHFLLSFAHFPLLVWVFSWVLVFGFNWFLSIYGVLELFFLFCSHCWIAWS
Second: SSVVLFVFFLLFLLFSLFFYPTWLLPCLIFLLNDYLLFFLLFFCRVSCSFAPL
The “transcriptional activation domain activity” value of the first is higher: 63900 for the first, 45800 for the second.

Compared with “SGTEDEDAAEDKSAAEDESGTEDESGTKDESGTEDEKLVRDIEEVVIVVEVVM”, “GSELEVKKPSKKRAPKKAAKKEEYEGSEMDEKPAPKRRAPARSTKKAAKKEEA” is lower in “transcriptional activation domain activity” value: 32900 for the first, 15800 for the second.

Going from “PIGIFFFFPFVWLFRVFIFLCISYCCFLVPYVCSRGSSFFWLPVSTLFLSFLF” to “MCFRILLSFLHVHPLFENALFYEISLICLLISWRSSTCSMHLLFIFIFILFFC”, the “transcriptional activation domain activity” value falls from 45000 to 42200.

Compared with “DLDFRGIFMTDWYANYDYMVSDLIMPGFWRVPVLPKWYNWTGFFASWPLIGQF”, “MYLQWASCPLLICVSCFYTSLIYFAIISMSSMILTLVCLDRSMCWYSGWIFSS” is lower in “transcriptional activation domain activity” value: 68800 for the first, 46000 for the second.

Compared with “ISMEKIGRRAFNKGMKNIDEGPETENDATENSLTTILNDLEGPLEDFSENFID”, “ALVLLYIIRFVCTTLAKRFPSKSKLFFFMSTLRTVFVILLYTMISWLVNRHSR” is higher in “transcriptional activation domain activity” value: 34300 for the first, 44800 for the second.

Going from “FVGFVGSLKRQFLRQQFGLFCWVHMSLLLIVCASHFVMNNILEGMIWFWVPAS” to “MANVRFFVGLQRLFPFLAFHHLLMLCHIIVIILLSILLAGCSSYSSMINVYIL”, the “transcriptional activation domain activity” value rises from 60400 to 70400.

Compared with “MIELCLWVFSLLVLPRFGLRNFEVRINVALRELLLTITWGRLAIHVSLLRLVV”, “KKAAAALNGEAADGEATAEGEGAPKREPRAKKPRTPRPRRAPGEEPAGEPSKN” is lower in “transcriptional activation domain activity” value: 49000 for the first, 44900 for the second.

Going from “NEENIRREQDAADEIAQKLRDDIRSRTGCDVSVGIGSNILQAKVALRKGKPAG” to “MPMDILVFYIPHRIKFCFFFFYLFIFFIFLPSYLIFYCTVTSAFLLFLYLYYL”, the “transcriptional activation domain activity” value falls from 35200 to 26000.

For “MLLKVSEPFSLFVYISGSAITLFSFFKFLFSLFFLLLILFFFPLFFFFPIVIV”, the “transcriptional activation domain activity” value was 80000.
